Data on nine molecules can be found in patent publication US20200362047A1 (CRESCENDO BIOLOGICS, published 2020).

Test [1] concerns the target T1, human CD137-human Fc chimeric protein (Acro Biosystems cat no. 41B-H5258) (human, UniProt Q07011 24-186).
T1 construct: Bought protein; The Octet Protein G and Biacore experiments name no catalogue number; also called human CD137Fc recombinant protein; human CD137-Fc recombinant protein; not shown: human IgG1 Fc tag
The test can be described thus: HTRF binding assay. How it is done:
(§1) Binding to human CD137Fc recombinant protein (Acro Biosystems 41B-H5258), rhesus CD137Fc recombinant protein (Sino Biologicals cat no. 90847-K02H) and mouse CD137Fc protein (Acro Biosystems 41B-M5258) was measured using an HTRF Binding assay format. All reagents and serially diluted VH were prepared in assay buffer containing PBS, 0.1% BSA and 0.4M Potassium Fluoride. Samples or assay buffer (non-specific binding) were incubated with 0.5 nM human, rhesus or mouse CD137, 1 nM Anti human-Fc Cryptate PAb (Cisbio cat. no. 61HFCKLB) and 20 nM anti His-D2 (CisBio cat no 61HISDLA) in black 384-shallow well assay plates for a minimum of 3 hours at room temperature. Time-resolved fluorescent emission at 620 nm and 665 nm was measured following excitation at 337 nm on the BMG PHERAstar plate reader. The HTRF ratio were calculated ((665 nm emission/620 nm emission)*10000) and the data corrected for (non-specific binding) to give the specific binding signal. VH bound to human and rhesus CD137 but not to mouse CD137 protein.
Background: TR-FRET usually uses a lanthanide donor and a delayed reading to cut background.

Test [2] has as its target T2, rhesus CD137Fc recombinant protein (Sino Biologicals cat no. 90847-K02H) (rhesus; human, UniProt H9Z8K9 24-186).
T2 construct: Bought protein; also called rhesus CD137-human IgG1 Fc tagged protein; not shown: human IgG1 Fc tag
T2 sequence: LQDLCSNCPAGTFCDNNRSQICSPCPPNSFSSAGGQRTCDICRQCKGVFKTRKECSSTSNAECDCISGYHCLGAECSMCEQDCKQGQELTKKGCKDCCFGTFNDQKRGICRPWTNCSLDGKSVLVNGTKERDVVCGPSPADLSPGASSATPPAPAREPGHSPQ
In words: HTRF binding assay. As for the experimental part:
as §1

Test [3] concerns the target T3, mouse CD137Fc protein (Acro Biosystems 41B-M5258) (mouse, UniProt P20334 24-187).
T3 construct: Bought protein; also called mouse CD137 protein; not shown: Fc tag, detected with anti human-Fc
T3 sequence (looked up): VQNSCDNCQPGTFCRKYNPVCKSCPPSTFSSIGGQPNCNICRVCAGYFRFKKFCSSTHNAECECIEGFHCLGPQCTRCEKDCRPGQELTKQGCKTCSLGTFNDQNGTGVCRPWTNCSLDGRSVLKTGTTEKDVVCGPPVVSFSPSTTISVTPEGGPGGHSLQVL
The test can be described thus: HTRF binding assay. How it is done: as §1

Test [4] concerns the target T1, human CD137-human Fc chimeric protein …. The test can be described thus: BLI (Octet RED384), CD137-Fc on Protein G sensors, 1:1 model. How it is done: Binding kinetics of purified VH, bivalent VH and trivalent VH molecules were measured on a ForteBio Octet RED 384 instrument. CD137-Fc tagged protein was diluted to 3 μg/ml in kinetics buffer (0.1% BSA, 0.02% Tween, 1×PBS) and coupled to Protein G biosensors (ForteBio cat no. 18-5082) via the Fc tag. VH were serially diluted (typically 1:2 dilution series starting with 50 nM, VH at the highest concentration) and binding to the CD137-Fc-coupled Protein G biosensors measured. Binding kinetics were determined from the (blank subtracted) sensor gram trace using 1:1 binding models and ForteBio Octet Data Analysis 9.0 software. Example kinetic and binding affinity data obtained is shown Table 10 (monovalent VH) and FIG. 1 (bivalent and trivalent molecules).

Test [5] shares this target. The test can be described thus: BLI (Octet RED384), CD137-Fc amine-coupled to AR2G sensors, 1:1 model. How it is done:
The kinetics of monovalent and bispecific Humabody VH were determined on a ForteBio Octet RED 384 instrument. To study the interaction with the antigens, CD137-Fc tag protein (Acro Biosystems cat no. 41B-H5258) or PSMA-his (R&D Systems cat no. 4234-ZN) was immobilised onto AR2G biosensors (ForteBio cat no. 18-5082) by amine coupling. Monovalent VH and bispecific molecules were serially diluted (typically 1:2 dilution series starting between 12-25 nM, at the highest concentration) in kinetics buffer (0.1% BSA, 0.02% Tween, 1×PBS) and binding to the immobilised proteins was studied during the association and dissociation phases. PSMA binding was measured using 180 seconds association and 600 seconds dissociation phases. CD137 binding was measured 180 seconds association and 600 seconds dissociation phases. Reference subtracted data were fitted to a 1:1 binding model using the ForteBio Octet Data Analysis software.
A general note: In BLI a coated tip is dipped into the sample, and binding shifts an interference pattern.

B1: Humabody VH 1.52 (VHH)
VH: EVQLVESGGGLVQIGGSLRLSCAASGFTFSKYWMIWVRQAPEKGLEWVANINQDGSEKYYVDSVEGRFTISRDNANNSLFLQMNSLRAEDTAVYYCARGGDDYSISHFGMDVSGQGTRVTVSSHHHHHH
notes: human single VH domain
In general, EC50 refers to the concentration at which the effect is half-maximal. In general, Kd refers to the free concentration of one partner at which half of the binding sites on the other are occupied at equilibrium, for simple one-to-one binding. As a reminder, the koff is the rate constant with which the complex falls apart. A low value points to slow dissociation. The term kon denotes the rate constant with which the complex forms. As to B1, a half-maximal response in test [1] (EC50) required 0.48 nM. The EC50 in test [2] came to 0.45 nM. In addition, the binding result in test [3] is recorded as “no binding”. In test [4], this molecule showed a Kd of 3.2 nM, a koff of 0.000963 s⁻¹ and a kon of 300000 M⁻¹ s⁻¹.

B2: Humabody VH 2.1 (VHH)
VH: EVQLVESGGGLVKPGGSLRVSCAASGFTFSDYYMSWFRQAPGKGLEWVSYISGSGDIIDYADSVKGRFTISRDNAKNSLYLQMNNLRAEDTAVYHCAREDSRLTGTTDFDNWGQGTLVTVSSHHHHHH
notes: human single VH domain
B2 had an EC50 in test [1] of 3.7 nM. Also, in test [3], the binding result is reported as “no binding”. In test [4], this molecule displayed a Kd of 2.9 nM, a koff of 0.00388 s⁻¹ and a kon of 1.35e+06 M⁻¹ s⁻¹. In test [5], this molecule registered a Kd of 6.7 nM, a koff of 0.0052 s⁻¹ and a kon of 770000 M⁻¹ s⁻¹.

B3: Humabody VH 2.8 (VHH)
VH: EVQLVESGGGLVKPGGSLRLSCAASGFAFSDYYMSWFRQAPGKGLEWVSHISGSGTTIDYADSVKGRFTISRDNAKNSLYLQMNSLRAEDTAVYHCAREDSRMPGTTDFDNWGQGTLVTVSSHHHHHH
notes: human single VH domain
Turning to B3, in test [1], the EC50 amounted to 3.1 nM. The EC50 in test [2] amounted to 1.6 nM. The binding result in test [3] is “no binding”. In test [4], binding was put at a Kd of 5.3 nM, the koff is 0.00616 s⁻¹ and the on-rate constant (kon) is 1.17e+06 M⁻¹ s⁻¹.

B4: Humabody VH 2.14 (VHH)
VH: EVQLVESGGGLVKPGGSLRLSCAASGFTFSDYYMTWFRQAPGKGLEWISYISGSGDTIDYAESVKGRFTISRDNAKNSLYLQMNSLRAEDTAVYYCAREDIRMPGTTDFDHWGQGTLVTVSSHHHHHH
notes: human single VH domain
For the molecule B4, the 50% effective concentration (EC50) in test [1] stood at 1.2 nM. In test [2], the EC50 is 1.3 nM. Further, the binding result in test [3] is listed as “no binding”. In addition, in test [4], the Kd came out at 0.96 nM, the koff is 0.00157 s⁻¹ and the kon was 1.63e+06 M⁻¹ s⁻¹.

B5: Humabody VH 2.9 (VHH)
VH: EVQLVESGGGLVKPGGSLRLSCAASGFTFSDYYMTWFRQAPGKGLEWISYISGSGDTIDYAESVKGRFTISRDNAKNSLYLQMNSLRAEDTAVYHCAREDSRIAGTTDFDNWGPGTLVTVSSHHHHHH
notes: human single VH domain
Regarding B5, the EC50 was 1.3 nM in test [1] and 1.2 nM in test [2]. In addition, the binding result in test [3] is reported as “no binding”.

B6: Humabody VH 1.78 (VHH)
VH: QVQLVESGGGLVQPGGSLRLSCAATGFTLSNYWMNWVRQAPGKGLEWVANINQDGSERYYVDSVKGRFTISRDNAKNSLYLQMSSLRAEDTAVYFCARGGEGYGVDHYGLDVSGQGTTVTVSSHHHHHH
notes: human single VH domain
In test [1], B6 registered an EC50 of 0.21 nM. Further, the EC50 in test [2] is 0.14 nM. The binding result in test [3] is “no binding”. In test [4], binding was characterised by a dissociation constant (Kd) of 0.72 nM, the koff was found to be 0.000219 s⁻¹ and the kon worked out at 304000 M⁻¹ s⁻¹.

B7: Humabody VH 1.11 (VHH)
VH: EVQLVESGGGLVQPGGSLRLSCEASGFTFSDYWMNWARQAPGKGLEWVANIKEDGSEKYYVDSVEGRFTISRDNAKNSTYLQMNSLRAEDTAVYYCARGGAGYSMSHYGMDVWGQGTTVTVSSHHHHHH
notes: human single VH domain
B7 registered an EC50 in test [1] of 0.58 nM. In addition, in test [2], the concentration for a half-maximal effect (EC50) was 6.8 nM. The binding result in test [3] is “no binding”. In test [4], this molecule showed a Kd of 2.5 nM, a koff of 0.00148 s⁻¹ and an on-rate constant (kon) of 596000 M⁻¹ s⁻¹.

B8: Humabody VH 1.1 (VHH)
VH: EVQLVESGGGLVQPGGSLRLSCAASGFTFSSHWMTWFRQAPGKGLEWVAHIKEDGSEKYYEDSVEGRFTVSRDNAKNSVYLQMNSLRAEDTAVYYCARGGDGYSDSHFGVDVWGQGTTVTVSSHHHHHH
notes: human single VH domain; also called single domain antibody 1.1
Consider B8, for which the EC50 in test [1] amounted to 0.26 nM; in test [2] it was 1.1 nM. The binding result in test [3] is “no binding”. Moreover, the Kd in test [4] stood at 0.34 nM; in test [5] it was 0.52 nM. Moreover, the koff in test [4] is 0.00034 s⁻¹; in test [5], 0.00036 s⁻¹. Moreover, the kon in test [4] was determined as 989000 M⁻¹ s⁻¹; in test [5], 710000 M⁻¹ s⁻¹.

B9: Humabody VH 1.18 (VHH)
VH: EVQLVESGGGLVQPGGSLRLSCAASGFTFSTHWMNWARQAPGKELEWVANINQDGSEKYYVDSVEGRFTISRDNANNSLYLQMNSLRAEDTAVYYCARGGVGYGDSHFGMDVWGLGTTVTVSSHHHHHH
notes: human single VH domain
B9 gave an EC50 in test [1] of 0.45 nM. Also, the EC50 in test [2] was 5.1 nM. Also, the binding result in test [3] is recorded as “no binding”. In test [4], this molecule displayed a Kd of 0.12 nM, a koff of 0.000625 s⁻¹ and a kon of 5.18e+06 M⁻¹ s⁻¹.
